Assay results published in doi:10.1101/2025.01.01.631016, “A tool to dissect heterotypic determinants of homotypic protein phase behavior” (bioRxiv, 2025).

Biological target: T1, Avitag-His-TEV-mEos3.1 (Lobophyllia hemprichii EosFP, …, point mutant)
T1 construct: also called purified mEos3.1; pET-Biotin-His6-mEos3.1; source: E. coli BL21 (DE3), co-expressed with BirA, purified (Ni-NTA, anion exchange)
T1 chain: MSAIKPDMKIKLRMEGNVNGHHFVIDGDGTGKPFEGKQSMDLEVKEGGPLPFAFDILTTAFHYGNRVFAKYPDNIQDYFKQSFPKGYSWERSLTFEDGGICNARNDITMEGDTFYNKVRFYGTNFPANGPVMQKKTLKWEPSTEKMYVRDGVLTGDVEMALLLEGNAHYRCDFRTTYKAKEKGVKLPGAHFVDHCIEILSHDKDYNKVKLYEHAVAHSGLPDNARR
Assay: BLI
Conditions: both partners purified

- Kd: 76.8 nM
B1: tag free mEosNb (VHH)
VHH: QVQLQESGGGLVQAGGSLRLSCAASGNISQLVYMGWYRQAPGKERELVAGITHGGITYYADSVKGRFTISRDNAKNTVYLQMNSLKPEDTAVYYCAAFQWRSDDVGYLNLGPLEYWGQGTQVTVSS
notes: also called mEos3Nb; nanobody against mEos3; not shown: Avitag, C-terminal, cleaved; His, C-terminal, cleaved
